Assay results taken from PMC9409550.

Experiments:
Test in all cases: flow cytometry on cells
[1] = biological target: BANAL-103 RBD, yeast-displayed (bat sarbecovirus BANAL-103)
[2] = biological target: Rs4874 RBD, yeast-displayed (bat sarbecovirus Rs4874)
[3] = biological target: BANAL-236 RBD, yeast-displayed (bat sarbecovirus BANAL-236)
[4] = biological target: Khosta-2 RBD, yeast-displayed (bat sarbecovirus Khosta-2)
[5] = biological target: WIV16 RBD, yeast-displayed (bat sarbecovirus WIV16)

Chain of CDY14HL-Fc1 (Q9BYF1 18-615): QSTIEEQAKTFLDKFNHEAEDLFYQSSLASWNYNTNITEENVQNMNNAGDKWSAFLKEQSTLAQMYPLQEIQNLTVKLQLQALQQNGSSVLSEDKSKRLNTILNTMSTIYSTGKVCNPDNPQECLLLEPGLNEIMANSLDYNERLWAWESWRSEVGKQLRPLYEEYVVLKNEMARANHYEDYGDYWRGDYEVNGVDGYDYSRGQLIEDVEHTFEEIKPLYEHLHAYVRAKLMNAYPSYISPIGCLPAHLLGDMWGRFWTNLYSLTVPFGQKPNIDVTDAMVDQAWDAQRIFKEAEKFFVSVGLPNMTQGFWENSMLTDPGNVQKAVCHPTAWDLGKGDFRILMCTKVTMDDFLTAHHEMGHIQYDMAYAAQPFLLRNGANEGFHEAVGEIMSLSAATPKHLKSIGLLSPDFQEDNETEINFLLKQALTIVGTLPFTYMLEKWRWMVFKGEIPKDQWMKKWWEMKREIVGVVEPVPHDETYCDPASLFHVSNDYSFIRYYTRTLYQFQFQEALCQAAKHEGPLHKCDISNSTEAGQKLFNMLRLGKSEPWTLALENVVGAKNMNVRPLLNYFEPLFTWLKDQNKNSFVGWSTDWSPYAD

CDY14HL-Fc1 (from UniProt Q9BYF1 18-615) (Fc fusion)
Kd [1]: 0.3 nM
Kd [2]: 0.23 nM
Kd [3]: 0.24 nM
Kd [4]: 1.9 nM
Kd [5]: 0.24 nM
